Data set [1] has as its target T1, Recombinant STUB1 protein, spanning aa25-aa153 (UniProt Q9UNE7 25-153).
T1 chain: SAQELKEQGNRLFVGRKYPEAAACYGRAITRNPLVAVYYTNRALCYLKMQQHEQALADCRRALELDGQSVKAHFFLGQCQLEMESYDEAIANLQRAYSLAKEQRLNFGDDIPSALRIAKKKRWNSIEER
As to the kind of experiment: ITC.

The target of data set [2] is T1, Recombinant STUB1 protein, spanning …. As to the kind of experiment: FP.
In data set [3] the target is T2, Recombinant STUB1 protein, spanning aa25-aa153 (UniProt Q9UNE7 25-153).
T2 construct: STUB1 (E3 ligase, also STUB1/CHIP), residues 25-153; also called STUB1 (aa25–aa153); CHIP; source: recombinant, produced by Nanyang Technological University protein production platform; purity and identity confirmed by mass spectrometry and SDS-PAGE
T2 sequence (looked up): T1 chain
The data set can be described thus: ITC; peptide (200 µM) injected into STUB1 aa25-aa153 (20 µM); 25 °C; PBS pH 7.4, 0.5 mM TCEP, 2% DMSO; one-site binding model. As to conditions: both partners purified.

The target of data set [4] is T2, Recombinant STUB1 protein, spanning …. As to the kind of experiment: thermal shift assay; SYPRO Orange; 100 µM peptide, 10 µM STUB1 aa25-aa153; heated from 25 to 95 °C in 0.5 °C increments. As to conditions: both partners purified.
Data set [5] has the same target. The data set can be described thus: fluorescence polarisation; competitive; 15 nM tracer 5-FAM-…, 1 µM STUB1 aa25-aa153, peptide of interest 5 nM to 100 µM; room temperature; PBS pH 7.4, 0.01% v/v Tween 20; 30 min incubation. As to conditions: both partners purified.

Turning to Ac-TIEEVD-OH, the Kd in data set [1] came out at 2.19 µM. Further, the IC50 in data set [2] stood at 2.7 µM.

B1: synthetic inhibitory peptide SIWWPD (peptide)
peptide: Ac-SIWWPD-OH
notes: source: synthetic peptide, custom made by Chinese Peptide Company (CPC)
Consider B1, for which the Kd in data set [3] was found to be 0.014 ± 0.002 µM. Besides, in data set [4], the ΔTm was 18.3 °C. The IC50 in data set [5] stood at 0.34 µM.

Values taken from paper PMC9388626, “STUB1 is an intracellular checkpoint for interferon gamma sensing” (Scientific Reports, 2022).
